# Assay results from US20060252716A1, “Method for reversing the immunosuppressive effects of the melanoma inhibitory activity "mia"” (priority 2000, published 2006).
# B1: MIA: polypeptide Melanoma Inhibitory Activity; 131-amino acid precursor processed into a mature 107-amino acid protein (protein, UniProt Q16674 25-131, looked up)
# Melanoma-derived growth …: GPMPKLADRKLCADQECSHPISMAVALQDYMAPDCRFLTIHRGQVVYVFSKLKGRGRLFWGGSVQGDYYGDLAARLGYFPSSIVREDQTLKPGKVDVKTDKWDFYCQ
# B2: SEQ. ID No 9: long MIA antisense sequence, or parts of it, expressed from a transfecting vector (nucleic acid, listed as Homo sapiens)
# antisense: GGCAGGGCCAGCGGTAGGCTGAGCTCACTGGCAGTAGAAATCCCATTTGTCTGTCTTCACATCGACTTTGCCAGGTTTCAGGGTCTGGTCCTCTCGGACAATGCTACTGGGGAAATAGCCCAGGCGAGCAGCCAGATCTCCATAGTAATCTCCCTGAACGCTGCCTCCCCAGAAGAGCCGCCCACGGCCCTTCAGCTTGGAGAAGACATACACCACTTGGCCCCGGTGAATGGTCAGGAATCGGCAGTCGGGGGCCATGTAGTCCTGAAGGGCCACAGCCATGGAGATAGGGTGGCTGCACTCCTGGTCCGCACACAGCTTCCGGTCAGCCAGCTTGGGCATAGGACCACCCCTGACACCAGGTCCGGAGAAGGCAGACAGCAAGATGATGACACCAAGGCACACCAGGGACCGGGCCATCGTGGACTGTGAGCAAGAGAGTGAGCAAGGGGGTGCTGG
# modifications: expressed from transfecting vector
# Experiments:
# [1] = tested on: MIA; test: Inhibition of MIA expression by antisense sequences; assay type: cell-based, human
# [2] = tested on: Peripheral Blood Mononuclear Cells (PBMCs); settings: addition of MIA; cited from earlier work
# [3] = tested on: cells; settings: cited from earlier work
# [4] = tested on: malignant melanoma cell; settings: cited from earlier work
# [5] = tested on: LAK cytotoxicity against malignant glioma cell lines (HTZ-17, -243, -374, -375); test: CARE-LASS calcein-release assay, effector cells pretreated with MIA; assay type: cell-based
# Excerpt: To study the effects of MIA upon cytotoxic T-lymphocytes (CTL) and Lymphokine Activated Killer cells (LAK cells) a CARE-LASS assay has been employed (Lichtenfels, R., Biddison, W. E., Schulz, H., Vogt, A. B. and R. Martin. CARE-LASS (calcein-release assay), an improved fluorescence based test system to measure cytotoxic lymphocyte activity J. Immunol. Meth., 172: 227-239, 1994). Briefly, glioma cells were harvested, washed in 5% FCS/PBS solution and resuspended at 10 Mio cells/ml in 5% FCS/FBS. Calcein-AM was added to a final concentration of 25 μM (Molecular Probes, USA). The cells were labeled for 30 min at 37° C. then washed twice in 5%/FCS/PBS, adjusted to 1 Mio cells/ml and loaded into 96-well U-shaped microtiter plates at the final concentration of 0.1 Mio/100 μL/1 well (Nunc, Denmark). To measure cytotoxic activity of effector cells pretreated with MIA (f.c. 500 ng/ml), wells were loaded with 100 μL of CTL and LAK cells to produce the desired E:T ratios of […]. […] After incubating the plate for 4 h at 37° C. the supernatants (50 μL) were transferred into new wells and measured using an automated fluorescence scanner (Titertek Fluoroskan II, Germany). The percent cytotoxicity was determined from the following equation: [formula]
# [6] = tested on: human MIA-secreting melanoma as well as breast cancer cell lines; test: Tumor invasion and metastasis in scid-mice and nude mice; assay type: in vivo; settings: transfecting vector expressing the antisense sequence
# Excerpt: Inhibition of endogenous MIA synthesis by a transfecting vector expressing the antisense sequence (SEQ. ID No 9): […]
molecule,measurement,setting,value
MIA-0202-N: MIA antisense sequence ATG GTG AGG AAT CG,inhibiting MIA expression,[1],Less active or inactive
MIA-1277-N: MIA antisense sequence GAA TGG TCA GGA ATG G,inhibiting MIA expression,[1],Less active or inactive
"MIA-2842-W: MIA antisense sequence TGC CTC CCC AGA AG (antisense TGCCTCCCCAGAAG; all phosphorothioate, sugars by position and methylation of C not given here; listed as Homo sapiens)",inhibiting MIA expression,[1],Active
MIA-1278-W: MIA antisense sequence CTT GGA GAA GAG ATA C,inhibiting MIA expression,[1],Active
MIA-2841-W: MIA antisense sequence GTC AGG AAT CGG GAG,inhibiting MIA expression,[1],Active
B1,IL-2-stimulated PBMC proliferation,[2],only slightly inhibited
same,inhibits cell proliferation (cell cycle effect),[3],prolonging of the S-Phase and arrest of the cells in the G2 compartment
same,tumor cell growth inhibition,[4],potent tumor cell growth inhibitor
same,inhibition of autologous and allogenic LAK cytotoxicity compared to controls,"[5]; MIA f.c. 500 ng/ml, E:T ratios 1:10 and 1:100, 4 h",up to 40%
same,Allogenic anti-glioma LAK immune response,[5]; exogenous addition of MIA,strongly inhibited
B2,tumor invasion and metastasis,[6],strongly reduced
